The values that follow come from article PMC12132378 (bioRxiv, 2025).

The experiment has as its target Ub-Lys-TAMRA (UniProt P0CG48 1-76, Ub is isopeptide-linked to a TAMRA-labeled Lys-Gly dipeptide (modification at the Ub C-terminus)). The experiment in a line: fluorescence polarisation. On the technique in general: Fluorescence polarisation rises when a labelled molecule tumbles more slowly, as on binding a larger partner.

B1: RNF114 (wild type, full length) (enzyme)
chain: MAAQQRDCGGAAQLAGPAAEADPLGRFTCPVCLEVYEKPVQVPCGHVFCSACLQECLKPKKPVCGVCRSALAPGVRAVELERQIESTETSCHGCRKNFFLSKIRSHVATCSKYQNYIMEGVKATIKDASLQPRNVPNRYTFPCPYCPEKNFDQEGLVEHCKLFHSTDTKSVVCPICASMPWGDPNYRSANFREHIQRRHRFSYDTFVDYDVDEEDMMNQVLQRSIIDQ
The term Kd denotes the constant that tells how readily two partners part at equilibrium. B1 gave a Kd of approximately 20 µM.
